The supplement of paper PMC9170038

Key:
MS2 coat protein [1] = assay: apparent KD of MS2 coat protein, switch OFF state (with FMN for OFF switches, without FMN for ON switches); designed switch direction (-1 OFF switch, 1 ON switch): 1; higher = weaker reporter binding; details: FMN input: 0 or 200 uM; Eterna round: R93 (includes R88 designs)
In short: (§1)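 Titrations with SNAP-549-labelled MS2 coat protein ran in twofold steps from 0.7 or 1.5 nM to 3 µM, each step taking 0.8–1.5 h at the start and 10–20 min toward the end. The targets were designed RNA switches transcribed on-chip from Illumina sequencing clusters, held in 100 mM Tris-HCl pH 7.5, 80 mM KCl, 4 mM MgCl2, without or with constant ligand. Apparent KD was taken per design as the median of normalised cluster binding-curve fits.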

MS2 coat protein [2] = assay: apparent KD of MS2 coat protein, switch ON state; designed switch direction (-1 OFF switch, 1 ON switch): 1; higher = weaker reporter binding; details: FMN input: 0 or 200 uM; Eterna round: R93 (includes R88 designs)
In short: as §1

Row | Sequence | apparent KD of MS2 coat protein (MS2 coat protein [1]) [nM] | apparent KD of MS2 coat protein (MS2 coat protein [2]) [nM]
1 | AAGAAAGUUUACGAGGAUAUGUUCCGCAGAACAUGAGGAUCACCCAUGUGAACACGAAGUGCGACGCAGAAGGCGUGAGCAAUGA [Isenmaqu] | 130 | 34.5
2 | AAGAUACAUGAGGAUCACCCAUGUUAAGAGAGAUGAGGAUAUCCGAAUUAAUUAAAUUAAGGAGAAGGCAUGAAAA [LROPPY Same State 1 - v02_deltaG=2.1] | 26.9 | 18.2
3 | AAGCAACAUGAGGAUCACCCAUGUAGCAGGGUCAGAGGAUAUUUGAGCUUGGUAAGGGUUAAAGAAGGUUGAUAAA [Alabeti] | 55.5 | 138
4 | AAUAAACAUGAGGAUCACCCAUGUCGGUAAAGUCAAGGAUAUGGGACUGGGAUUAAAGUGCCAGAAGGUGAAAAUA [Raxela] | 351 | 122
5 | AAUAAGACUAGCAAGGAUAUCGAAAACGAGACAUGAGGAUCACCCAUGUAACAAGUAUAAGUAUACGAGAAGGUGCAGGGUGUAA [JR_SS002_Sub302] | 36.9 | 174
6 | AAUAAGACUAGCAAGGAUAUCGAAAACGAGACAUGAGGAUCACCCAUGUAACGAGUAUAAGUAUACGAGAAGGUGCAGGGUGAAA [JR_SS002_Sub303] | 86.7 | 75
7 | AAUACACAUGGUCAGGAUAUCGCAGCUAGGACAUGAGGAUCACCCAUGUAGCAUGUAACUGAAACCGAGAAGGGACAGGGUGAUC [JR_SS002_Sub412] | 85.1 | 61.4
8 | AAUACACAUGGUCAGGAUAUCGCAGCUAGGACAUGAGGAUCACCCAUGUCGUACGUAAAAGUAAAUGAGAAGGGACAGGGUGACC [JR_SS002_Sub407] | 30 | 37.8
9 | AAUAUACAUGAGGAUCACCCAUGUGAAAAUAUGGAAGGAUAUCGUAAAAAAAAAAAAAAACGAGAAGGUCCAAAAA [SS! 1 MT 14] | 30.2 | 18.7
10 | AAUAUAUUAAGUGAGGAUAUCAAGAAAAAAACAUGAGGAUCACCCAUGUGGGAAACACGGUAGGGUGAGAAGGUACUUAAUAUAU [Samwise Clockwise 20 - Jieux - Same State 2] | 27.6 | 504
11 | AAUAUAUUAAGUGAGGAUAUCGAGGAAAAAACAUGAGGAUCACCCAUGUGGGAAACCUGGUCGGGUGAGAAGGCACUUAAUAUAU [Samwise Clockwise 26 - Jieux - Same State 2] | 76.7 | 19.8
12 | ACAAAACAUGAGGAUCACCCAUGUGAGAACAUGAAAGGAUAUACUAGGACGAGAGUCAAUGUAGAAGGUUCUAGAA [SS - 1] | 39 | 34.6
13 | ACAAGGCUACACUAGGAUAUGGGUGUCUAAACAUGAGGAUCACCCAUGUGAUGGCAAAACAAAGCUCAGAAGGAGUCGUAGCCCA [Anvemais] | 27.4 | 14.7
14 | ACCAGGAAGAGAGAGGAUAUCCAAAGGAAAACAUGAGGAUCACCCAUGUAAAAGGUAGGAAAUUGGGAGAAGGCUCAAGAGAGAG [salish99-ss2-101] | 30.1 | 26.7
15 | ACGGCACAUGAGGAUCACCCAUGUGCCGAGAGGCGAGGAUAUCGAAAAAAAAAAAAAAAACGAGAAGGCGCGAGAA [SameState1NO] | 11.1 | 12.6
16 | ACUACACAUGAGGAUCACCCAUGUCAGGUGGGACUAGGAUAUUAUAAACCAGAGUAAAAAUAAGAAGGAGUAGAAA [JR_SS001_Sub308] | 46.6 | 51.8
17 | ACUUCACAUGAGGAUCACCCAUGUCAGGCCGGACUAGGAUAUUAUAAACCAGAGUAAAAAUAAGAAGGAGUAGGAA [JR_SS001_Sub311] | 75.2 | 67.9
18 | AGAAAACAUGAGGAUCACCCAUGUCAAAUAAGUCAAGGAUAUGGGACUCCGCGAGAGUCGCCAGAAGGUGAGAAAA [Aatrara] | 49.5 | 17.5
19 | AGAAAACAUGAGGAUCACCCAUGUGAUAAUAUGGGAGGAUAUACGAAGACGAAAGUCGACGUAGAAGGCCUAAAGA [Garnet 48] | 70.8 | 35.3
20 | AGAAAGAAUAGAGAGGAUAUCUAUAAGAAAACAUGAGGAUCACCCAUGUAAAAGAAAAGAAAAUGGGAGAAGGCUCAUAAGAAAG [JL Skelter Mod 6 In the Red] | 71.6 | 186

Row | Sequence | apparent KD of MS2 coat protein (MS2 coat protein [1]) [nM] | apparent KD of MS2 coat protein (MS2 coat protein [2]) [nM]
21 | AGAAAUAAAAGACAGGAUAUCCAAAAGAAAACAUGAGGAUCACCCAUGUAAAAGAAAAUAAAAUGGGAGAAGGGUCAAAAUAAAG [Topaz 2] | 36.6 | 11
22 | AGAAAUAAAAGAGAGGAUAUCCAAAACAAAACAUGAGGAUCACCCAUGUGAAAGAAAAUAAAAUGGGAGAAGGCUCAAAAUAAAG [Topaz 8] | 70.4 | 8.35
23 | AGAAAUAAAAGAGAGGAUAUUCAAAAAGGGACAUGAGGAUCACCCAUGUAAAAGAAAAUAAAAUGGGAGAAGGCUCAAAAUAAAG [80%, More Helter Skelter 2] | 61.7 | 85.5
24 | AGAAAUAAACCUCAGGAUAUGGGUAAGAAAACAUGAGGAUCACCCAUGUAAAAGAAAAUAAAAAACCAGAAGGGAGAAAAUAAAG [Reversing G segment in JL's winner (80%) Variant 2] | 41.3 | 31.3
25 | AGAAAUAAAUCUCAGGAUAUGGGUAAAUAAACAUGAGGAUCACCCAUGUAAAAGAAAAUAAAAAACCAGAAGGGAGAAAAUAAGA [Designing denovo 2] | 39.2 | 16.2
26 | AGAAGACAUGAGGAUCACCCAUGUGGGAAUAUGGGAGGAUAUACAAAGACGAGAGUCAGAGUAGAAGGCCUAGGAC [salish99-ss1-94] | 81 | 30.5
27 | AGAAUAAAAAGACAGGAUAUCCAAAAGAAAACAUGAGGAUCACCCAUGUAAAGAAAAGAAAAAUGGGAGAAGGGUCAAAAUAAGA [Mat - Same State 2 - JL mod - D59] | 56.3 | 20.4
28 | AGACAUAACAGAGAGGAUAUCCAAAAGAAAACAUGAGGAUCACCCAUGUGAAAGAAAAUAAAAUGGGAGAAGGCUCACAUACAGA [Topaz 37] | 39 | 20
29 | AGCAUAGACAGAGAGGAUAUCCACGAGACAACAUGAGGAUCACCCAUGUGAAAGAGAAUACGAUGGGAGAAGGCUCGCGAUACGA [Topaz 49] | 19.7 | 13.4
30 | AGCAUAGACAGAGAGGAUAUCCACGAGACAACAUGAGGAUCACCCAUGUGAUAGAGAAUACGAUGGGAGAAGGCUCGCGGUACGA [Topaz 50] | 61.3 | 13.9
31 | AGGAAACAUGAGGAUCACCCAUGUAAAAAAUAUGGAGGAUAUGGAAACACGAAAGUGAAACCAGAAGGCUAAAAAA [77%, Mat - Mod of Eli, 24] | 26.9 | 17
32 | AGGAAACAUGAGGAUCACCCAUGUAAAAAUAUGGGAGGAUAUACAAAGACGAAAGUAAGAGUAGAAGGCCUAAAAG [Garnet 16] | 150 | 31.3
33 | AGGAAACAUGAGGAUCACCCAUGUAAAAAUAUGGGAGGAUAUAGAAAGACGAAAGUCAAACUAGAAGGCCUAAAAG [Garnet 5] | 83.3 | 16.1
34 | AGGAAACAUGAGGAUCACCCAUGUAAAAAUAUGGGAGGAUAUGGAAACACGAAAGUGAAACCAGAAGGCCCGAAAA [77%, Mat - Mod of Eli, 18] | 23.9 | 17.1
35 | AGGAAACAUGAGGAUCACCCAUGUAAAAGGUGGGUAGGAUAUGCGAAAAGAAAAAGAAAAGCAGAAGGGCCAAGAA [something completely different] | 133 | 41.9
36 | AGGAAACAUGAGGAUCACCCAUGUAGAAAAAUGGGAGGAUAUACAAAGACGAAAGUCAAAGUAGAAGGCCUAAAAG [76%, Meechl, 6] | 45.8 | 14.5
37 | AGGAAACAUGAGGAUCACCCAUGUAGAAAUAUGGGAGGAUAUACAAAGACGAAAGUCAAAGUAGAAGGCCUAAAAG [76%, Meechl 1] | 63 | 22.8
38 | AGGAAACAUGAGGAUCACCCAUGUCUAAAUAUGGGAGGAUAUGCACAAAAGGAAAUAACUGCAGAAGGCCUAAAAA [62%, Redo, 4] | 103 | 17.3
39 | AGGAGACAUGAGGAUCACCCAUGUGAGAAGAGGCGAGGAUAUCGAAAGAAAGAAGAGAAACGAGAAGGCGCGAGAA [salish99-SS1-017] | 30.3 | 15
